The target in one series is gp4-Y111A (bacteriophage T7, UniProt P03692 1-566, Y111A). As to the kind of experiment: double-filter binding; 1 mM [beta,gamma-CH2] dTTP, 10 mM MgCl2; Filter binding: 40 mM Tris-HCl pH 7.5, 50 mM potassium glutamate, 10 mM MgCl2, 5 mM DTT, 1 mM [beta,gamma-CH2] dTTP, 30 min, 25 C; mass photometry: 40 mM Tris-HCl pH 7.5, 150 mM KCl, 10 mM MgCl2, 25 C, 8.7 nM gp4 hexamer, 10 nM ssDNA. The note with it: protein: recombinant; tags: His (implied: pET28, TALON); chain copies: 6; label: 5'-32P; single strand.

Series [1] has as its target gp4 WT (T7 primase-helicase) (bacteriophage T7, UniProt P03692 1-566). Described as above. The note with it: protein: recombinant; tags: His (implied: pET28, TALON); chain copies: 6; label: 5'-32P; single strand.

Usually Kd stands for a measure of binding affinity in units of concentration.

Consider ATGACCATGATTTCGACGTTTTTTTTTTTGGGGATCCTCTAACCTGCGCA (ssDNA) [50-nt ssDNA, 5'-32P], for which the Kd was 93 nM in the series with gp4-Y111A and 14 nM in series [1].

The values above are taken from article PMC9198812, “Residues located in the primase domain of the bacteriophage T7 primase-helicase are essential for loading the hexameric complex onto DNA”.
